The Human Domainome abundance scans (Beltran et al. 2025)
± gives the uncertainty stated by the source.

B1: GAS2-like protein 1, residues 209 to 276; numbered along this chain, Q99501 (parent)
chain: DELVREILGRCTCPDQFPMIKVSEGKYRVGDSSLLIFVRVLRSHVMVRVGGGWDTLEHYLDKHDPCRC

Variants of: B1
Test: abundance fitness (aPCA) (normalised: wild type 0, dead -1); higher = more abundant; growth selection in yeast, the domain comes from the species named
Conditions: Homo sapiens

Row | Variant | abundance fitness
1 | DELVREILGRCTCPDQFPMIKVSEGKYRVGDSSLLIFVRVLRSHVMVRVGGGWDTLEHYLDKHDPVRC [C66V] | -0.97 ± 0.14
2 | DELVREILGRCTCPDQFPMIKVSEGKYRVGDSSLLIFVRVLRSHVMVRVGGGWDTLEHYLDKHDPMRC [C66M] | -0.734 ± 0.12
3 | DELVREILGRCTCPDQFPMIKVSEGKYRVGDSSLLIFVRVLRSHVMVRVGGGWDTLEHYLDKHDPKRC [C66K] | -0.746 ± 0.13
4 | DELVREILGRCTCPDQFPDIKVSEGKYRVGDSSLLIFVRVLRSHVMVRVGGGWDTLEHYLDKHDPCRC [M19D] | -1.18 ± 0.33
5 | DELVREILGRCTCPDQFPMIKVSEGKYRVGDSSLLIFVRVLRSHVMVRVGGGWDTLEHYKDKHDPCRC [L60K] | -0.838 ± 0.15
6 | DELVREILGRCTCPDQFPMIKVSEGKYRVGDSSELIFVRVLRSHVMVRVGGGWDTLEHYLDKHDPCRC [L34E] | 0.316 ± 0.048
7 | DELVREILGVCTCPDQFPMIKVSEGKYRVGDSSLLIFVRVLRSHVMVRVGGGWDTLEHYLDKHDPCRC [R10V] | -0.747 ± 0.099
8 | DELVREILGYCTCPDQFPMIKVSEGKYRVGDSSLLIFVRVLRSHVMVRVGGGWDTLEHYLDKHDPCRC [R10Y] | -0.564 ± 0.13
9 | DELVREILGRQTCPDQFPMIKVSEGKYRVGDSSLLIFVRVLRSHVMVRVGGGWDTLEHYLDKHDPCRC [C11Q] | -0.986 ± 0.26
10 | DELVREILGRKTCPDQFPMIKVSEGKYRVGDSSLLIFVRVLRSHVMVRVGGGWDTLEHYLDKHDPCRC [C11K] | -0.949 ± 0.13
11 | DELVREILGRHTCPDQFPMIKVSEGKYRVGDSSLLIFVRVLRSHVMVRVGGGWDTLEHYLDKHDPCRC [C11H] | -0.966 ± 0.26
12 | DELVREILGRCTCPDQFPMIKVSEGKYRVGDSSLLIFVRVLRSHVMVRVRGGWDTLEHYLDKHDPCRC [G50R] | -0.18 ± 0.044
13 | DELVREILGRCTCPDQFPMIKVSEGKYRVGDSSLLIFVRVLRSHVMVRVGGGWDTLEHYLDKKDPCRC [H63K] | -0.077 ± 0.14
14 | DELVREILGRCTCPDQFPMIKVSEGKYRVGDSSLLIFVRVLRSHVMVRVGGGWDTLEHYLDKFDPCRC [H63F] | -0.015 ± 0.092
15 | DELVREILGRCTCPDQFPMIKVSEGKYRVGDSSLLIFVRVLRSHVMVRVGGGWDTLECYLDKHDPCRC [H58C] | -0.3 ± 0.068
16 | DELVREILSRCTCPDQFPMIKVSEGKYRVGDSSLLIFVRVLRSHVMVRVGGGWDTLEHYLDKHDPCRC [G9S] | 0.077 ± 0.031
17 | DELVREILGRCTCPDQFPMIKVREGKYRVGDSSLLIFVRVLRSHVMVRVGGGWDTLEHYLDKHDPCRC [S23R] | -0.359 ± 0.062
18 | DELVREILGRCTCPDQFPMIKVKEGKYRVGDSSLLIFVRVLRSHVMVRVGGGWDTLEHYLDKHDPCRC [S23K] | -0.336 ± 0.079
19 | DELVREILGRCTCPDQFPMIKVNEGKYRVGDSSLLIFVRVLRSHVMVRVGGGWDTLEHYLDKHDPCRC [S23N] | -0.483 ± 0.15
20 | DELDREILGRCTCPDQFPMIKVSEGKYRVGDSSLLIFVRVLRSHVMVRVGGGWDTLEHYLDKHDPCRC [V4D] | -0.888 ± 0.15

Row | Variant | abundance fitness
21 | DELVREILGRCTCPDQFPMCKVSEGKYRVGDSSLLIFVRVLRSHVMVRVGGGWDTLEHYLDKHDPCRC [I20C] | -0.366 ± 0.1
22 | DELVREILGRCTCPDQFPMYKVSEGKYRVGDSSLLIFVRVLRSHVMVRVGGGWDTLEHYLDKHDPCRC [I20Y] | 0.054 ± 0.054
23 | DELVREILGRCTCPDQFPMIKVSEGKYRVGDSSLLIFVRVLRSYVMVRVGGGWDTLEHYLDKHDPCRC [H44Y] | -0.515 ± 0.12
24 | DELVREILGRCTCPDQFPMIKVSEGKYRVGDSSLLIFVRVLRSMVMVRVGGGWDTLEHYLDKHDPCRC [H44M] | 0.131 ± 0.092
25 | DELVREILGRCTCPDQFPMIKVSEGKYRVGDSSLLIFVRVLRSKVMVRVGGGWDTLEHYLDKHDPCRC [H44K] | 0.007 ± 0.1
26 | DRLVREILGRCTCPDQFPMIKVSEGKYRVGDSSLLIFVRVLRSHVMVRVGGGWDTLEHYLDKHDPCRC [E2R] | 0 ± 0.064
27 | DHLVREILGRCTCPDQFPMIKVSEGKYRVGDSSLLIFVRVLRSHVMVRVGGGWDTLEHYLDKHDPCRC [E2H] | -0.006 ± 0.2
28 | DELVREILGRCTCPDQFPMIKVSEGKYRVGDSSLLIFVRVLRSHVMVRVGGGWDTLEHYLDKHFPCRC [D64F] | -0.419 ± 0.11
29 | DELVREILGRCTCPDQFPMIKVSEGKYRVGDSSLLIFVRVLRSHVMVRVGGGWDTLEHYLDKHYPCRC [D64Y] | -0.936 ± 0.14
30 | DELVREILGRCTCPDQFPMIKVSEGKYRVGDSSLLIFVRVLRAHVMVRVGGGWDTLEHYLDKHDPCRC [S43A] | -0.158 ± 0.076
31 | DELVREILGRCTCPDQFPMIKVSEGKYRVGDSSLLIFVRVLRSHVMVRVGGGWDTLEHYLDGHDPCRC [K62G] | -0.337 ± 0.045
32 | DELVREILGRCTCPDQFPMIKVSEGKYRVGDSSLLIFVRVLRSHVMVRVGGGWDTEEHYLDKHDPCRC [L56E] | -0.965 ± 0.24
33 | DELVREILGRCTCPDQFPMIKLSEGKYRVGDSSLLIFVRVLRSHVMVRVGGGWDTLEHYLDKHDPCRC [V22L] | -0.323 ± 0.055
34 | DELVREILGRCTCPDQFPMIKCSEGKYRVGDSSLLIFVRVLRSHVMVRVGGGWDTLEHYLDKHDPCRC [V22C] | -0.365 ± 0.099
35 | DELVREILGRCTCPDQFPMIKVSEGKYRVGDSSLLIFVAVLRSHVMVRVGGGWDTLEHYLDKHDPCRC [R39A] | -0.14 ± 0.07
36 | DELVREILGRCTCPDQFPMIKVSEGKYRVGDSSLLIFVQVLRSHVMVRVGGGWDTLEHYLDKHDPCRC [R39Q] | -0.03 ± 0.067
37 | DELVREILGRCTCPDQFPMIKVSEGKYRVGDSSLLIFVRVLRSHVMVRVGGGWDTLEHYLDKHDPCNC [R67N] | -1.01 ± 0.35
38 | DELVREILGRCTCPDQFPMIKVSEGKYRVGDSSLDIFVRVLRSHVMVRVGGGWDTLEHYLDKHDPCRC [L35D] | -0.003 ± 0.071
39 | DELVREILGRCTCPDQFPMIKVSEGKYRPGDSSLLIFVRVLRSHVMVRVGGGWDTLEHYLDKHDPCRC [V29P] | -0.985 ± 0.15
40 | DELVREILGRCTCPDQFPMIKVSEGKYRSGDSSLLIFVRVLRSHVMVRVGGGWDTLEHYLDKHDPCRC [V29S] | -0.422 ± 0.09
